± gives the uncertainty stated by the source.
Assay: self-splicing fitness, log relative to wild type (ln ratio); higher = more splicing; Tetrahymena group I intron in knt gene, E. coli kanamycin selection, DiMSum; sequences stand for … in CUCUCU…GGAGGGAAAAGUUAUCAGGCAUGCACCUGGUAGCUAGUCUUUAAACCAAUAGAUUGCAUCGGUUUAAAAGGCAAGACCGUCAAAUUGCGGGAAAGGGGUCAACAGCCGUUCAGUACCAAGUCUCAGGGGAAACUUUGAGAUGGCCUUGCAAAGGGUAUGGUAAUAAGCUGACGGACAUGGUCCUAACCACGCAGCCAAGUCCUAAGUCAACAGAUCUUCUGUUGAUAUGGAUGCAGUUCACAGACUAAAUGUCGGUCGGGGAAGAUGUAUUCUUCUCAUAAGAUAUAGUCGGACCUCUCCUUAAUGGGAGCUAGCGGAUGAAGUGAUGCAACACUGGAGCCGCUGGGAACUAAUUUGUAUGCGAAAGUAUAUUGAUUAGUUUUGGAGUACUCGUGGUCG
Procedure, shortened: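 DiMSum derived fitness as the error-weighted combination of fold changes across replicates, kanamycin versus no kanamycin, normalised to wild type. E. coli BL21(DE3) held the library, which randomised all eight P1ex-region intron nucleotides within the knt kanamycin-resistance gene on pET-22b(+). Six replicate transformations grew overnight at 37°C or 30°C on LB agar with or without 25 μg/mL kanamycin, also containing 100 μg/mL carbenicillin, 50 μM IPTG and 0.2% rhamnose, and pooled colonies were amplicon-sequenced on an Illumina HiSeq 2500.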

Row | Sequence | self-splicing fitness (ln) (30 °C) | self-splicing fitness (ln) (37 °C)
1 | GUCGAGCAAUAUUACGUAGA | -2.65 ± 0.17 | -1.88 ± 0.24
2 | GUCGAGCAAUAUUACGUAGC | -1.18 ± 0.16 | -0.606 ± 0.22
3 | GUCGAGCAAUAUUACGUAUA | -3.54 ± 0.25 | -1.63 ± 0.18
4 | GUCGAGCAAUAUUACGUCAA | -2.62 ± 0.29 | -2.32 ± 0.22
5 | GUCGAGCAAUAUUACGUCAG | -3.08 ± 0.16 | -2.98 ± 0.19
6 | GUCGAGCAAUAUUACGUCUA | -1.76 ± 0.46 | -0.965 ± 0.33
7 | GUCGAGCAAUAUUACGUGCG | -2.9 ± 0.17 | -2 ± 0.17
8 | GUCGAGCAAUAUUACGUUCG | -3.55 ± 0.3 | -1.86 ± 0.25
9 | GUCUAGCAAUAUUACGAAUG | -2.56 ± 0.21 | -1.43 ± 0.19
10 | GUCUAGCAAUAUUACGACAG | -2.33 ± 0.18 | -1.71 ± 0.3
11 | GUCUAGCAAUAUUACGAUAA | -1.09 ± 0.22 | 0.55 ± 0.23
12 | GUCUAGCAAUAUUACGAUGG | -3.48 ± 0.17 | -0.823 ± 0.17
13 | GUCUAGCAAUAUUACGCACU | -0.628 ± 0.047 | 0.389 ± 0.063
14 | GUCUAGCAAUAUUACGCAGC | -2.29 ± 0.14 | -0.0809 ± 0.12
15 | GUCUAGCAAUAUUACGCCAG | -2.46 ± 0.4 | –
16 | GUCUAGCAAUAUUACGCCUC | -0.0816 ± 0.058 | -0.181 ± 0.068
17 | GUCUAGCAAUAUUACGCGCU | -1.29 ± 0.19 | -0.353 ± 0.15
18 | GUCUAGCAAUAUUACGCGUU | -0.17 ± 0.063 | -0.000183 ± 0.069
19 | GUCUAGCAAUAUUACGGAAC | -1.15 ± 0.26 | 1.15 ± 0.16
20 | GUCUAGCAAUAUUACGGAGC | -1.04 ± 0.15 | -1.02 ± 0.18
21 | GUCUAGCAAUAUUACGGCCU | -2.09 ± 0.19 | -1.19 ± 0.16
22 | GUCUAGCAAUAUUACGGUAG | – | -1.54 ± 0.26
23 | GUCUAGCAAUAUUACGGUUC | -0.596 ± 0.089 | 0.433 ± 0.096
24 | GUCUAGCAAUAUUACGGUUG | -2.54 ± 0.092 | -1.53 ± 0.1
25 | GUCUAGCAAUAUUACGUAAU | -0.317 ± 0.1 | 0.597 ± 0.12

Row | Sequence | self-splicing fitness (ln) (30 °C) | self-splicing fitness (ln) (37 °C)
26 | GUCUAGCAAUAUUACGUAUA | -1.41 ± 0.13 | -0.887 ± 0.12
27 | GUCUAGCAAUAUUACGUCAC | -2.9 ± 0.24 | -3.04 ± 0.43
28 | GUCUAGCAAUAUUACGUCUC | 0.162 ± 0.096 | -0.048 ± 0.096
29 | GUCUAGCAAUAUUACGUGCA | -1.38 ± 0.096 | -0.535 ± 0.1
30 | GUCUAGCAAUAUUACGUGUG | -0.5 ± 0.063 | -0.649 ± 0.079
31 | GUCUAGCAAUAUUACGUUGA | -1.64 ± 0.2 | -1.12 ± 0.23
32 | GUCUAGCAAUAUUACGUUGU | -0.779 ± 0.055 | -0.582 ± 0.065
33 | GUGAAGCAAUAUUACGAAAU | -0.716 ± 0.11 | -0.0167 ± 0.12
34 | GUGAAGCAAUAUUACGAAUA | -1.91 ± 0.1 | -0.485 ± 0.23
35 | GUGAAGCAAUAUUACGAAUU | -0.957 ± 0.18 | -0.439 ± 0.21
36 | GUGAAGCAAUAUUACGAGGA | – | -0.805 ± 0.32
37 | GUGAAGCAAUAUUACGAUGG | -2.31 ± 0.11 | 0.388 ± 0.13
38 | GUGAAGCAAUAUUACGCCAU | -2.07 ± 0.13 | -1.14 ± 0.15
39 | GUGAAGCAAUAUUACGCGGA | -1.24 ± 0.09 | -1.13 ± 0.14
40 | GUGAAGCAAUAUUACGCGGU | -3.01 ± 0.28 | -0.0814 ± 0.17
41 | GUGAAGCAAUAUUACGGAAC | 0.76 ± 0.34 | –
42 | GUGAAGCAAUAUUACGGCCU | 0.395 ± 0.068 | 0.277 ± 0.085
43 | GUGAAGCAAUAUUACGGGAG | -2.09 ± 0.1 | -0.567 ± 0.094
44 | GUGAAGCAAUAUUACGGGGC | -2.91 ± 0.23 | -3.35 ± 0.35
45 | GUGAAGCAAUAUUACGGGUA | -0.994 ± 0.068 | -1.23 ± 0.1
46 | GUGAAGCAAUAUUACGGGUG | -1.39 ± 0.075 | -0.589 ± 0.11
47 | GUGAAGCAAUAUUACGGUCC | -0.351 ± 0.15 | -0.0265 ± 0.18
48 | GUGAAGCAAUAUUACGUCCC | -1.28 ± 0.35 | -0.367 ± 0.2
49 | GUGAAGCAAUAUUACGUUAA | -2.09 ± 0.12 | -1.74 ± 0.14
50 | GUGCAGCAAUAUUACGAACC | -1.94 ± 0.3 | 0.395 ± 0.48

Row | Sequence | self-splicing fitness (ln) (30 °C) | self-splicing fitness (ln) (37 °C)
51 | GUGCAGCAAUAUUACGAGAA | – | -2.25 ± 0.3
52 | GUGCAGCAAUAUUACGAGGG | -2.79 ± 0.21 | -1.87 ± 0.27
53 | GUGCAGCAAUAUUACGAUGU | -0.56 ± 0.067 | -0.37 ± 0.073
54 | GUGCAGCAAUAUUACGAUUC | 0.476 ± 0.074 | -0.403 ± 0.073
55 | GUGCAGCAAUAUUACGCACA | -3.26 ± 0.18 | -1.67 ± 0.12
56 | GUGCAGCAAUAUUACGCAUU | – | -2.38 ± 0.2
57 | GUGCAGCAAUAUUACGCCUA | -1.29 ± 0.24 | 0.608 ± 0.25
58 | GUGCAGCAAUAUUACGGAUG | -2.72 ± 0.29 | -1.74 ± 0.25
59 | GUGCAGCAAUAUUACGGAUU | -1.66 ± 0.12 | -0.37 ± 0.11
60 | GUGCAGCAAUAUUACGGCAC | -0.83 ± 0.2 | -1.46 ± 0.24
61 | GUGCAGCAAUAUUACGGCAU | -2.93 ± 0.2 | -1.64 ± 0.18
62 | GUGCAGCAAUAUUACGGCCA | -0.211 ± 0.11 | -0.818 ± 0.14
63 | GUGCAGCAAUAUUACGGCGC | -2.72 ± 0.17 | -2.41 ± 0.32
64 | GUGCAGCAAUAUUACGGCUG | -4.5 ± 0.34 | -2.36 ± 0.28
65 | GUGCAGCAAUAUUACGGGAG | -2.01 ± 0.12 | -1.44 ± 0.13
66 | GUGCAGCAAUAUUACGGGGC | -1.75 ± 0.15 | -2.63 ± 0.27
67 | GUGCAGCAAUAUUACGGGUU | -3.37 ± 0.13 | -0.752 ± 0.095
68 | GUGCAGCAAUAUUACGGUCG | -1.29 ± 0.053 | -0.792 ± 0.075
69 | GUGCAGCAAUAUUACGUAUG | -1.86 ± 0.13 | -1.1 ± 0.13
70 | GUGCAGCAAUAUUACGUCAG | -3.02 ± 0.13 | -1.83 ± 0.11
71 | GUGCAGCAAUAUUACGUCCC | -0.912 ± 0.35 | -0.124 ± 0.26
72 | GUGCAGCAAUAUUACGUCGC | -1.5 ± 0.28 | -0.148 ± 0.22
73 | GUGCAGCAAUAUUACGUGAU | -1.98 ± 0.078 | -0.862 ± 0.086
74 | GUGCAGCAAUAUUACGUUUG | -1.76 ± 0.17 | -2.63 ± 0.27
75 | GUGGAGCAAUAUUACGAAAA | -2.27 ± 0.43 | –

Row | Sequence | self-splicing fitness (ln) (30 °C) | self-splicing fitness (ln) (37 °C)
76 | GUGGAGCAAUAUUACGAUGA | -1.37 ± 0.19 | -1.39 ± 0.37
77 | GUGGAGCAAUAUUACGCCGG | -2.57 ± 0.46 | –
78 | GUGGAGCAAUAUUACGCGAC | -2.22 ± 0.48 | –
79 | GUGGAGCAAUAUUACGCGUG | -2.88 ± 0.37 | -1.77 ± 0.3
80 | GUGGAGCAAUAUUACGCUUA | -1.86 ± 0.14 | -1.04 ± 0.22
81 | GUGGAGCAAUAUUACGCUUC | -3.26 ± 0.2 | -3.69 ± 0.42
82 | GUGGAGCAAUAUUACGGGGG | -3.36 ± 0.44 | –
83 | GUGGAGCAAUAUUACGGUAA | -2.05 ± 0.11 | -2.95 ± 0.19
84 | GUGGAGCAAUAUUACGGUAG | -1.7 ± 0.16 | -1.41 ± 0.31
85 | GUGGAGCAAUAUUACGUAUA | -2.7 ± 0.2 | –
86 | GUGGAGCAAUAUUACGUCUA | -3.74 ± 0.47 | –
87 | GUGGAGCAAUAUUACGUGCA | -2.14 ± 0.17 | -1.17 ± 0.16
88 | GUGGAGCAAUAUUACGUUAU | -3.23 ± 0.26 | -0.612 ± 0.14
89 | GUGGAGCAAUAUUACGUUGU | -2.93 ± 0.12 | -2.53 ± 0.21
90 | GUGUAGCAAUAUUACGAAAU | -1.47 ± 0.1 | -1.1 ± 0.14
91 | GUGUAGCAAUAUUACGACCA | -1.47 ± 0.28 | -0.121 ± 0.43
92 | GUGUAGCAAUAUUACGACGU | 0.117 ± 0.095 | 0.9 ± 0.12
93 | GUGUAGCAAUAUUACGAGAG | – | -1.52 ± 0.47
94 | GUGUAGCAAUAUUACGCACG | -3.57 ± 0.27 | -2.25 ± 0.22
95 | GUGUAGCAAUAUUACGCAUC | – | -0.977 ± 0.26
96 | GUGUAGCAAUAUUACGCGAG | -3.67 ± 0.32 | -0.997 ± 0.17
97 | GUGUAGCAAUAUUACGCGGG | -3.73 ± 0.2 | -2.75 ± 0.2
98 | GUGUAGCAAUAUUACGGAAG | -1.96 ± 0.19 | -0.206 ± 0.19
99 | GUGUAGCAAUAUUACGGCCA | 0.628 ± 0.35 | -0.349 ± 0.44
